Test results: the RNAGym collection of RNA variant scans (doi:10.1073/pnas.2313332121)

B1: TPR t1 (parent)
chain: GACCAAUCUGCCCUCAGAGCUCGAGAACAUCUUCGGAUGCAGAGGAGGCAGGCUUCGGUGGCGCGAUAGCGCCAACGUCCUCAACCUCCAAUGCAUCCCACCACAUGAUGAUGCCUGAAGAGCCUUGGUUUUUUG

Variants of: B1
Assay: polymerase ribozyme fitness, log enrichment relative to wild type (log ratio); higher = more active; in vitro selection for triplet polymerase activity
Method in brief: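 Genotype fitness is the logarithm of its enrichment divided by wild-type enrichment, using inverse-variance-weighted averages of replicates. That logarithm is base 2. Enrichment was measured by Illumina sequencing of input and output libraries from one triplicate in vitro selection round, with frozen incubation at −7 °C, on PCR-built, transcribed mutant libraries of each subunit of a heterodimeric triplet polymerase ribozyme, retaining genotypes with ≥10 input reads and ≥1 read per output.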

First: GACCAAUAUGCCCUCAGAGCUCGAGAACAUCUUCGGAUGCAGAGGAGGCAGGCUUCGGUGGCGCGAUGGCGCCAACGUCCUCAACCUCCAAUGCAUCCCACCACAUGAUGAUGACUGAAGAGCCUUGGUUUUUUG
Second: GACCAAUCUGCCCUCAGAGCUCGAGAACAUCUUCGGAUGCAGAGGAGGGAGGCUUGGGUGGCGCGAUAGCGCCAACGUCCUCAACCUUCAAUGCAUCCCACCACAUGAUGAUGCCUGAACAGCCUUAGUUUUUUG
The “polymerase ribozyme fitness (log ratio)” value of the first is lower: -4.66 for the first, -2.45 for the second.

Going from GACCAAUCUGCCCUCAGAGCUCGAGAACAUCUUCGGAUGCAGAGGAGGCUGGCUUCGGUGUCGCGAUAGCGCCAACGUCCUCAACCUCCAAUGCAUCCCACCACAUGAUGAUGCCUGAAGAGCCUGGGUUUUUUG to GACCAAUCUGCCCUCAGAGCUCGAGAACAUCUUCGGAUGCAGAGGAUGCAGGCUUCGGUGGCGCGAUAGCGCCAACUUCCUCAACCUCCAAUGAAUCCCACCACAUGAUGAUGCCCGAAGCGCCUUGGUUUUUUG, the “polymerase ribozyme fitness (log ratio)” value falls from -2.73 to -4.66.

Compared with GACCAAUCUGCCGUCAGAGCUCGAGAACGUCUUCGGAUGCAAAGGAGGCAGGCUUCGGUGGCGCGAUAGCGCCAACGUCCUCAACCUCCAAUGCAUCCCACCACAUGAUGAUGCCUUAAGAGCCUUGGUUUUUUG, GACCAAUCUGCCCUCAGCGCUCGAGAACAUCUUCGGAUGCAGAGGAGGCAGGCUUCGGUGGCGCGAUAGCGCCAACGUCCUCAACCUCCAAUGCAUCCCACCACAUGAUGGUGCCUGAAGAGCCUUGGUUUUUUG is higher in “polymerase ribozyme fitness (log ratio)” value: -6.21 for the first, 0.883 for the second.

Going from GACCAAUGUGCCCUCAGAGCUAGAGAACAUCUUCGGAUGCAGAGGAGGCAGGCUUCGGUGGUGCGAUAGCGCCAACGUCCUCAACCUCCAAUGCAUCCCACCACAAGAUGAUGCCUGAAGAGCCUUGGUUUUUUG to GGCCAAUCUGCCCUCAGAGCUCGAGAACAUCUUCGGAUGCAGAGGAGGCAGGCUUCGGUGGCGCGAUAGAGCCAACGUCCUCAACCUCCAAUGCAUCCCACCACAUGAUGAUGCCUGAAGAGUCUUGGUUUUUUG, the “polymerase ribozyme fitness (log ratio)” value rises from -3.64 to -0.0496.

Compared with GACCAAUCUGCCCUCAGAGCUCGAGAACAUCUUCGGAUGCAGAGGAGGCAGGCUUCGGUGGCGCGAUAGCGCCAACGUCCUCAACCUCCAAUACAUCCCACCACAUGAAGAUGCCUGAAGAGCCUUGGUUUUUUG, GACCAAUCUGCCCUCAGAGCUCGAGAACAUCUUCGGAUGCAGAGGAGGCAGGCUUCGGUGGCGCGAUAGCACCAACGUCCUCAACCUCCAAUGCAUCCCACCACAUGAUGAUGCUUGAAGAGCCUUGGUUUUUUG is higher in “polymerase ribozyme fitness (log ratio)” value: -5.41 for the first, -1.95 for the second.

Compared with GACCAAUCUGCGCUCAGAGCUCGAGAACAUCUUCGGAUGCAGUGGAGGCAGGCUUCGGUGGCGCGAUAGGGCCAACGUCCUCAACCUCCAAUGCAUCCCACCACAUGAUGAUGCCUGAAGAGCGUUGGUUUUUUG, GACCAAUCUGCCCUCAGAGCUCGAGAACAUCUUCGGAUGCAGUGGAGGCAGGCUUCGGUGGCGCGAUAGCGCCAACGGCCUCAAUCUCCAAUACAUCCCACCACAUGAUGAUGCCUGAAGAGCCUUGGUUUUUUG is higher in “polymerase ribozyme fitness (log ratio)” value: -4.85 for the first, -3.01 for the second.

Compared with GACCAAUCUGCCCUCAGAGCUCGAGAACCUCUUCGGAUGCAGAGGAGGCAGGCUUCGGUGGCGAGAUAGCGCCAACGUCCUCAACCUCCAAUGCAUCCCACCACAUGAGGAUACCUGAAGAGCCUUGGUUUUUUG, GACCAAUCUGCCCUCAGAGCUCGAGAACAUCUUCGGAUGCAGAGGAGGCAGGCUUCGGUGGCGCGAUAGCGCCAACGUCCUCAACCUCCAAUGCAUCCCACCACAAGAUGAUGCCUGAAGAGACUUGGUUUUUUG is higher in “polymerase ribozyme fitness (log ratio)” value: -6.15 for the first, 0.524 for the second.

Going from GAACAAUCUGCCCUCAGAGCUCGAGAACAUCUUCGGAUGCAGAGGAGGCAGGCUUCGGUGACGCGAUAGCGCCAACGUGCUCAACCUCCAAUGCAUCCCACCACAUGAUGAAGCCUGAAGAGCCUUGGUUUUUUC to GACCAAUCUGCCCUCAGAGCUCGAGAACAUCUUCGGAUGCAGAGGAGGCAGGCUUCGGUGGCGCGAUACCGCCAACGUCCUCGACCUCCAAUGCAUCCCACCACAUGAUGAUGCCUGAAGAGCCUUGGUUUUUUG, the “polymerase ribozyme fitness (log ratio)” value rises from -2.83 to -2.31.

Compared with GACCAAUCUACCAUCAGAGCUAGAGAACAUCUUCGGAUGCAGAGGGGGAAGGCUUCGGUGGCGCGAUAGCGCCAACGUCCUCAACCUCCAAUGCAUCCCACCACAUGAUGAUGCCUGAAGAACCUUGGUUUUUUG, GACCAAUCUGCCCUCAGAGAUCGAGAACAUCUUCGGAUGCAGAGGAGGCAGGCUUUGGUGGCGCGAUAGCGCCAACGUCUUCAACCUCCAAUGCAUCCCACCACAUGAUGAUGCCUGAAGAGCCUUGGUUUUUUG is higher in “polymerase ribozyme fitness (log ratio)” value: -6.21 for the first, -4.41 for the second.

GACCAAUCUGCCCUCAGAGCUCGAGAACAUCUCCGGAUGCAGAGGAGGCAGGCUUCGGUGACGCGAUAGCGCCAACGUCCUCAACCUCCAAUGCAUCCCACCACAUGAUGAUGCCCGAAGAGCGUUGGUUUUUUG and GACCAAUCUGUCCUCAGAGCUCGAGAACAUCUUCGGAUGCAGAGGAGGCAGGCUUCGGUGGCGCGAUAGCGCCAACGUCCUCAACCUCCGAUGCAUGCCACCACAUGAUGAUGCCUGAAGAGCCUUGGCUUUUUG are within 0.2 log units of each other in “polymerase ribozyme fitness (log ratio)” value: -5.41 for the first, -5.59 for the second.

GACCAAUCUGCCCUCAGAGCUCGAGAACAUCUUCGGAUGCAGAGGAGGCAGGCUUCGGUGGCGCGAUAGGGCCAACGUCCUCAACCUCCAAUGCAUUCCACCACAUGAUGAUGCCUGAAGAGCCUUGGUUUUUUG and GACCAAUCUGCCCUCAGAGCUCGAGAACAUCUUCGGAUGCAGAGGAUGCAGGCUUCGGUGGCGCGAUAGCCCCAACGUCCUCAACCUCCAAUGCAUCCCACCACAUGAUGAUGCCUGAAGAGCCUUGGUUUUUUG are within 0.2 log units of each other in “polymerase ribozyme fitness (log ratio)” value: -2.56 for the first, -2.44 for the second.

Going from GACCAAUCUGCCCUCAGAGCUCGAGAACAUCUUCGGAUGCAGAGGAGGCUGGCUUCGGUGGCACGAUAGCGCCAACGUCCUCAACCUCCAAUGCAUCCCACCACAUGAUGAUGCCUGAAGAGCCUUGGUUUUUUG to GACCAAUCUGGCCUCAGAGCUUGAGAACAUCUUCGGAUGCAGAGGAGGCAGGCUUCGGUGACGCGCUAGCGCCAACGUCCUCAACCUCCAAUGCAUCCCACCACAUGAUGAUGCCUGAAGAGCCUUGGUUUUUUG, the “polymerase ribozyme fitness (log ratio)” value falls from -1.47 to -3.92.

Compared with GACCUAUCUGCCCUCAGAGCUCGAGAACAUCUUCGGAUGCAGAGGAGGCUGGCUUCGGUGUCGCGAUAGCGCCAACGUCCUCAACCUGCAAUGCAUCCCACCACAUGAUGAUGCCUGAAGAGCCUUGGUUUUUUG, GACCAAUCUGCCCUCAGAGCUCGAGAACAUCUUCGGAUGCAAAGGAGGCAGGCUUCGGUGGCGCGAUAGCGCCAACGUCCUCAACCUCCAAUGCAUCCCACCACAUGAUGAUGCCUGAAGAACCUUGGUUUUUUG is lower in “polymerase ribozyme fitness (log ratio)” value: -1 for the first, -2.59 for the second.

First: GACCAAUCUGCCCUCAGAGCUCGAGAACAUCUUCGGAUGCAGAGGAGUCAGGCUUCGGAGGCGCGAUACCGCCAACGUCCUCAACCUCCAAUGCAUCCCACCACAUGAUGAUGCCCGAAGAGCUUUGGUUUUUUG
Second: GACCAAUCUGCCCUCAGAGCUCGAGAACAUCUUCGGAUGCAGAGGAGGCUGGCUUCGGUGGCGCGAUAGCGGCAACGUUCUCAACCUCCAAUGCAUCCCACCACAUGAUGAAGCCUGAAGAGCCUUGGUUUUUUG
The “polymerase ribozyme fitness (log ratio)” value of the first is higher: -2.23 for the first, -3.66 for the second.

Compared with GACCCAUCUGCCCUCAGAGCUCGAGAACAUCUUCGGAUGCAGAGGAGGCAGGCUCCGGUGGCGCGAUAGCGCCAACGUCCUCAACCUCCAAUGCAUCCCACCACAUGAUGAUGCCUGAAUAGGCUUGGUUAUUUG, GACCAAUCUGCCCUCAGAGCUCGAGAACAUCUUCGGAUGCAGAGGAGGCCGGGUUCGGUGGCGCGAUAGCGCAAACGUCCUCAACCUCCAAUGCAUCCCACCACAUGAUGAUGCCUGAAGAGCCUGGGUUUUUUG is lower in “polymerase ribozyme fitness (log ratio)” value: 0.062 for the first, -2.99 for the second.

Compared with GACCAAUCUGCCCUCAGAGCUCGAGAACAUCUUCGGAUGCAGAGGAGGCAGGCUUCGGUGGCGCGAUAGCGCCAACGUCCUCAACCUCCAAUGCAUCCCACCACAUGAUGAUGCCUGAAAAGCCAUGGUUUUUUG, GACCAAUCUGUCCUCAGAGCUCGAGAACAUUUUCGGAUGCAGAGGAGGCAGGCUUCGGUGGCGCGAUAGCGCCAACGUCCUCAACCUCCAAUGCAUCCCACCACAUGAUGAUGCCUGAAGAGCCUUGGUUUUUUG is lower in “polymerase ribozyme fitness (log ratio)” value: 1.26 for the first, -4.93 for the second.

First: GACCAAUCUGCCCUCAGAUCUCGAGAACAUCUUCGGAUGCAGAGGAGGCAGGCUUCGGUGAUGCGAUAGCGCCAACGUCCUCAACCUCCAAUGCAUCCCACCACAUGAUGAUGCCUGAAGAGCAUUGGUUCUUUG
Second: GACCAAUCUGCCCUCAGAGAUCGAGAACAUCUUCGGAUGCAGAGGAGGCAGGCUUCGGUGGCGCGAUAGGGCCAACGUCCUCAACCUCCAAUGCAUCCCACCACAUGAUGAUGCCUGAAGAGCCUUGGUUUUUUG
The “polymerase ribozyme fitness (log ratio)” value of the first is higher: -4.46 for the first, -5.59 for the second.

Going from GACCAAUCUGCCCUCAGAGCUCGAGAACAUCUUCGGAUGCAGAGGAGGCAGGCUUUGGUGGCGCGAUAGCGCCAACGUCCUCAACCUCCAAUGCAUCCCACCACAUGAUGAUGCCUGAACAUCCUUGGUUUUUUG to GACCAAUCUGCCUUCAGAGCUCGAGAACAUCUUCGGAUGCAGAGGAGGCAUUCUUCGGUGGCGCGAUAGCGCCAACGUCCUAAACCUCCAAUGCAUCCCACCACAUGAUGAUGCCUGAAGAGCCUUGGUUUUUUG, the “polymerase ribozyme fitness (log ratio)” value falls from 1.43 to -5.14.

First: GACCAAUCUGCCCUCAGAGCUCGAGAACAUCUUCGGAUGCAGAGGAGGCAGGCUUCGGUGGCGCGAUAGCGCCAACGUCCUCAACCUCCAAUGAAUCCCACCACCUGAUGAUGACUGUAGAGCCUUGGUUUUUUG
Second: GACCAAUCUGCCCUCAGAGCUAGAGAACAUCUUCGGAUGCAGAGGAGGCAGGCUUCGGUGGCGCGAUAGCGCUAACGUCCUCAACCUCCAAUGCAUCCCACCACAUGAUGAUGCCUGAAGAGCCUUGGUUUUUUG
The “polymerase ribozyme fitness (log ratio)” value of the first is higher: -1.05 for the first, -5.07 for the second.

Compared with GACCAAUCUGCCCUCAGAGCUCGAGAACAUCUUCGGAUGCAGAGGUGGCAGGCUUCGGUGGCGCGAUAGCGCCCACGUCCUCAACCUCCAACGCAUCCCACCACAUGAUGAUGCCUGAAGAGCCUUGGUUUUUUG, GACCAAUCUGCCCUCAGAGCUCGAGAACAUCUACGGAUGCAGAGGAGGCAGGCUUCGGUGGCGCGAUAGCGCCAACGUCCACAACCUCCAAUGCAUCCCACGACAUGAUCAUGCGUGAAGAGCCUUGGUUUUUUG is lower in “polymerase ribozyme fitness (log ratio)” value: -1.48 for the first, -6.08 for the second.

Compared with GACCAAUCUGCCCUCAGAGCUCGAGAACAUCUUCGGAUGCAGAGGAGGCAGGCUUCGGUGGCGCGAUAGCGCCAAGGUCCUCAACCUCCAAUGCAUCCCACCACACGAUGAUGCCUGAAGAGCCUUGCUUUUUUG, GACCAAUCUGCCCUCAGAGCUCGAGAACAUCUUCGGAUGCAGAGGAGGCAGGCUUCGGUGGCGCGACAGCGCCAACGUCCUCAACCUCCAAUUCAUCCCACCACAUGAUGAUGCCUGAAGAGCCUUGGUUUUUUG is lower in “polymerase ribozyme fitness (log ratio)” value: -3.27 for the first, -5.03 for the second.
